Measured values: patent US20240318159

Test system: mND1 TALE_L-BE_41-N(G108) + TALE_R-BE_41-C(G43) split base editor (synthetic)
Assay: cell_activity
Details: m.2820G>A allele in mouse cells

Work on “CATTAGTAGAACGCA (double strand) [mND1 G2820 target]” yielded an activity of 56.4%.
